Read-outs that look alike come from different tables or passages of the source.
What was measured:
[1] = Stability in PBS 1X; type: physicochemical; settings: 1:1 with radiolabeled complex, 37 °C, 96 h, moderate agitation, radio-TLC, 50 mM DTPA, triplicate
Protocol: Briefly, 100 µL of the radiolabeled complex was added to 100 µL PBS 1X or human serum (HSA […]) in triplicate. [^67Cu]Cu-SAR-BBN was incubated at 37 °C for 14, 24, 48, 72, and 96 h with moderate agitation. An aliquot (0.5 μL) was withdrawn at each specified time point. Radio-TLCs with a mobile phase of 50 mM DTPA were performed to evaluate the percentage of intact radiolabeled peptides.

[2] = system: PC-3 tumors; experiment: Tumor histology and Ki-67 immunostaining; type: in vivo, athymic nude mice
Protocol: The kidneys, pancreas, livers, and tumors of 4 control mice and 4 treated mice were harvested and fixed in neutral buffered formalin. After fixation and dehydration, tissue samples were embedded in paraffin, and tissue sections were then stained with either hematoxylin and eosin (H&E) or Ki-67 for microscopic examination. H&E staining of tissue samples was prepared by the Anatomic and Molecular Pathology Core Lab, Washington University in St Louis. Ki-67 immunostaining was performed on 5 µm tissue sections of PC-3 tumors. The slides were baked in 55 °C oven for 60 min. The sections were deparaffinized, and heat-induced antigen retrieval was performed in citrate buffer 0.1 M pH 6.0 at 92 °C. After 20 min, the slides were cooled in 4 °C fridge for 15 min. The sections were then blocked with Dako Endogenous Enzyme Block (Dako North America, Inc., Carpinteria, CA, USA) for 10 min and washed twice with Dako Wash Buffer 1X. The sections were blocked with 10% goat serum in PBS for another 45 min and washed 2 × 5 min with Dako Wash Buffer 1X. The slides were then rinsed and incubated with Ki-67 antibody (1:100 dilution) overnight at 4 °C. […] Staining results were assessed by Olympus fluorescent microscope (BX51) and the cell Sense software in a blinded manner.

[3] = Biodistribution in normal tissues; type: in vivo, C57BL/6 female mice; settings: for tissue uptake at 2 h / tissue uptake at 4 h / tissue uptake at 6 h / tissue uptake at 24 h / tissue uptake at 72 h / tissue uptake at 144 h / tissue uptake at 216 h / tissue uptake at 1 h: female, C57BL/6, mouse, iv, 0.37 MBq, total radioactivity
Protocol: To determine the biodistribution of [^67Cu]Cu-SAR-BBN in normal tissues, 40 female C57BL/6 mice were evaluated in groups of 5 mice at various time points. [^67Cu]Cu-SAR-BBN was prepared in 0.9% saline with a concentration of 0.37 MBq (10 µCi) per 100 µL. Mice (n = 5) were injected with 0.37 MBq radiotracers via tail vein and sacrificed by cervical dislocation at 1 h, 2 h, 4 h, 6 h, 24 h, 3 days, 6 days, and 9 days. Blood, lung, liver, spleen, kidney, muscle, heart, bone, and pancreas were harvested and counted for activity on a gamma counter. The percent injected dose per gram for each tissue of interest (% ID/g) was calculated and expressed as Mean ± SD. All radioactivity measurements were corrected for decay.

CC(C)C[C@H](NC(=O)C[C@H](O)[C@H](CC(C)C)NC(=O)[C@H](Cc1c[nH]cn1)NC(=O)CNC(=O)[C@@H](NC(=O)[C@H](C)NC(=O)[C@H](Cc1c[nH]c2ccccc12)NC(=O)[C@H](CCC(N)=O)NC(=O)[C@@H](Cc1ccccc1)NC(=O)CCOCCOCCOCCOCCNC(=O)CCCC(=O)NC12CNCCNCC(C)(CNCCNC1)CNCCNC2)C(C)C)C(N)=O [[^67Cu]Cu-SAR-BBN, metal not drawn]
intact radiolabeled peptide in PBS 1X [1]: greater than 95% | tumor necrosis (blinded review of tumor samples) ([2]; 4 tumors per group): more extensive areas of necrosis in three out of four tumors | mean proliferation index (PI), Ki-67 ([2]; tumor areas without necrosis, immune infiltrate or host stroma, 4 tumors, control 38.1%, p = 0.26): 50.3% | Kidney %ID/g ([3]; 1 h after i.v. injection of 0.37 MBq, mean, n = 5): 6.15 %ID/g | tissue uptake at 2 h ([3]; in vivo, Blood %ID/g): 0.62 %ID/g | tissue uptake at 4 h ([3]; in vivo, Blood %ID/g): 0.53 %ID/g | tissue uptake at 6 h ([3]; in vivo, Blood %ID/g): 0.54 %ID/g | tissue uptake at 24 h ([3]; in vivo, Blood %ID/g): 0.33 %ID/g | tissue uptake at 72 h ([3]; in vivo, Blood %ID/g): 0.39 %ID/g | tissue uptake at 144 h ([3]; in vivo, Blood %ID/g): 0.11 %ID/g | tissue uptake at 216 h ([3]; in vivo, Blood %ID/g): 0.06 %ID/g | tissue uptake at 1 h ([3]; in vivo, Bone %ID/g): 0.88 %ID/g | tissue uptake at 2 h ([3]; in vivo, Bone %ID/g): 0.4 %ID/g | tissue uptake at 4 h ([3]; in vivo, Bone %ID/g): 0.47 %ID/g | tissue uptake at 6 h ([3]; in vivo, Bone %ID/g): 0.46 %ID/g | tissue uptake at 24 h ([3]; in vivo, Bone %ID/g): 0.31 %ID/g | tissue uptake at 72 h ([3]; in vivo, Bone %ID/g): 0.25 %ID/g | tissue uptake at 144 h ([3]; in vivo, Bone %ID/g): 0.09 %ID/g | tissue uptake at 216 h ([3]; in vivo, Bone %ID/g): 0.09 %ID/g | tissue uptake at 1 h ([3]; in vivo, Heart %ID/g): 1 %ID/g | tissue uptake at 2 h ([3]; in vivo, Heart %ID/g): 0.58 %ID/g | tissue uptake at 4 h ([3]; in vivo, Heart %ID/g): 0.78 %ID/g | tissue uptake at 6 h ([3]; in vivo, Heart %ID/g): 0.84 %ID/g | tissue uptake at 24 h ([3]; in vivo, Heart %ID/g): 0.84 %ID/g | tissue uptake at 72 h ([3]; in vivo, Heart %ID/g): 1.35 %ID/g | tissue uptake at 144 h ([3]; in vivo, Heart %ID/g): 0.93 %ID/g | tissue uptake at 216 h ([3]; in vivo, Heart %ID/g): 0.58 %ID/g | tissue uptake at 2 h ([3]; in vivo, Liver %ID/g): 5.08 %ID/g | tissue uptake at 4 h ([3]; in vivo, Liver %ID/g): 5.9 %ID/g | tissue uptake at 6 h ([3]; in vivo, Liver %ID/g): 6.78 %ID/g | tissue uptake at 24 h ([3]; in vivo, Liver %ID/g): 3.8 %ID/g | tissue uptake at 72 h ([3]; in vivo, Liver %ID/g): 4.03 %ID/g | tissue uptake at 144 h ([3]; in vivo, Liver %ID/g): 1.31 %ID/g | tissue uptake at 216 h ([3]; in vivo, Liver %ID/g): 0.59 %ID/g | tissue uptake at 2 h ([3]; in vivo, Lung %ID/g): 1.95 %ID/g | tissue uptake at 4 h ([3]; in vivo, Lung %ID/g): 2.68 %ID/g | tissue uptake at 6 h ([3]; in vivo, Lung %ID/g): 3.25 %ID/g | tissue uptake at 24 h ([3]; in vivo, Lung %ID/g): 1.81 %ID/g | tissue uptake at 72 h ([3]; in vivo, Lung %ID/g): 1.89 %ID/g | tissue uptake at 144 h ([3]; in vivo, Lung %ID/g): 0.68 %ID/g | tissue uptake at 216 h ([3]; in vivo, Lung %ID/g): 0.32 %ID/g | tissue uptake at 1 h ([3]; in vivo, Muscle %ID/g): 0.52 %ID/g | tissue uptake at 2 h ([3]; in vivo, Muscle %ID/g): 0.25 %ID/g | tissue uptake at 4 h ([3]; in vivo, Muscle %ID/g): 0.35 %ID/g | tissue uptake at 6 h ([3]; in vivo, Muscle %ID/g): 0.59 %ID/g | tissue uptake at 24 h ([3]; in vivo, Muscle %ID/g): 0.2 %ID/g | tissue uptake at 72 h ([3]; in vivo, Muscle %ID/g): 0.27 %ID/g | tissue uptake at 144 h ([3]; in vivo, Muscle %ID/g): 0.21 %ID/g | tissue uptake at 216 h ([3]; in vivo, Muscle %ID/g): 0.15 %ID/g | tissue uptake at 2 h ([3]; in vivo, Pancreas %ID/g): 14.7 %ID/g | tissue uptake at 4 h ([3]; in vivo, Pancreas %ID/g): 5.48 %ID/g | tissue uptake at 6 h ([3]; in vivo, Pancreas %ID/g): 3.38 %ID/g | tissue uptake at 24 h ([3]; in vivo, Pancreas %ID/g): 0.55 %ID/g | tissue uptake at 72 h ([3]; in vivo, Pancreas %ID/g): 0.75 %ID/g | tissue uptake at 144 h ([3]; in vivo, Pancreas %ID/g): 0.39 %ID/g | tissue uptake at 216 h ([3]; in vivo, Pancreas %ID/g): 0.22 %ID/g | tissue uptake at 1 h ([3]; in vivo, Spleen %ID/g): 1.94 %ID/g | tissue uptake at 2 h ([3]; in vivo, Spleen %ID/g): 1.27 %ID/g | tissue uptake at 4 h ([3]; in vivo, Spleen %ID/g): 0.94 %ID/g | tissue uptake at 6 h ([3]; in vivo, Spleen %ID/g): 0.9 %ID/g | tissue uptake at 24 h ([3]; in vivo, Spleen %ID/g): 0.51 %ID/g | tissue uptake at 72 h ([3]; in vivo, Spleen %ID/g): 0.74 %ID/g | tissue uptake at 144 h ([3]; in vivo, Spleen %ID/g): 0.3 %ID/g | tissue uptake at 216 h ([3]; in vivo, Spleen %ID/g): 0.14 %ID/g | tissue uptake at 2 h ([3]; kidney, 2 h after i.v. injection of 0.37 MBq, mean, n = 5, read-out: Kidney %ID/g): 3.99 %ID/g | tissue uptake at 4 h ([3]; kidney, 4 h after i.v. injection of 0.37 MBq, mean, n = 5, read-out: Kidney %ID/g): 3.48 %ID/g | tissue uptake at 6 h ([3]; kidney, 6 h after i.v. injection of 0.37 MBq, mean, n = 5, read-out: Kidney %ID/g): 3.53 %ID/g | tissue uptake at 24 h ([3]; kidney, 24 h after i.v. injection of 0.37 MBq, mean, n = 5, read-out: Kidney %ID/g): 2.37 %ID/g | tissue uptake at 72 h ([3]; kidney, 72 h after i.v. injection of 0.37 MBq, mean, n = 5, read-out: Kidney %ID/g): 3.1 %ID/g | tissue uptake at 144 h ([3]; kidney, 6 days after i.v. injection of 0.37 MBq, mean, n = 5, read-out: Kidney %ID/g): 1.37 %ID/g | tissue uptake at 216 h ([3]; kidney, 9 days after i.v. injection of 0.37 MBq, mean, n = 5, read-out: Kidney %ID/g): 0.74 %ID/g | reduction of activity circulating in the blood relative to the 1 h value ([3]; mouse, in vivo): over 70%

Reference: article PMC9229378, “Copper-67-Labeled Bombesin Peptide for Targeted Radionuclide Therapy of Prostate Cancer” (Pharmaceuticals, 2022)
